Test results from paper PMC3397996, “Ultramarine, a Chromoprotein Acceptor for Förster Resonance Energy Transfer” (PLoS ONE, 2012).
Each block holds one molecule with its values, some of them ahead of it.

Columns and labels:
[1] = target: Rtms5^F162R (Montipora efflorescens); test: SEC; Superdex S200 10/30, 100 µl of 1 mg/ml applied, 20 mM Tris-HCl pH 8.0, 300 mM NaCl, column calibrated with molecular weight standards; self-association
[2] = target: HcRed; test: as above
[3] = target: Rtms5^S125R/F162P (Montipora efflorescens); test: SEC; gel filtration, data not shown; self-association
[4] = target: Rtms5^S125R/F162P (Montipora efflorescens); test: AUC; sedimentation velocity, 20°C, 300 mM NaCl, 20 mM Tris pH 8.0, samples at 0.1 mg/ml and 1.0 mg/ml, 40,000 rpm; self-association
[5] = target: Rtms5^S125R (Montipora efflorescens); test: SEC; Superdex S200 10/30, 100 µl of 1 mg/ml applied, 20 mM Tris-HCl pH 8.0, 300 mM NaCl, column calibrated with molecular weight standards; self-association
[6] = target: the molecule itself; test: AUC; sedimentation velocity, 20°C, 300 mM NaCl, 20 mM Tris pH 8.0, samples at 0.1 mg/ml and 1.0 mg/ml, 40,000 rpm; self-association

Molecule: Rtms5^F162R (natural protein)
stoichiometry N [1]: 2

Molecule: Rtms5^S125R/F162P (natural protein)
stoichiometry N [3]: 2
stoichiometry N [4]: 2

B1: Rtms5 (natural protein)
chain: MSVIATQMTYKVYMSGTVNGHYFEVEGDGKGRPYEGEQTVKLTVTKGGPLPFAWDILSPQCQYGSIPFTKYPEDIPDYVKQSFPEGFTWERIMNFEDGAVCTVSNDSSIQGNCFTYHVKFSGLNFPPNGPVMQKKTQGWEPHSERLFARGGMLIGNNFMALKLEGGGHYLCEFKTTYKAKKPVKMPGYHYVDRKLDVTNHNKDYTSVEQCEISIARKPVVA
notes: Cloned in pQE9N; also called wildtype Rtms5; source: E. coli BL21-DE3 (pQE9N:Rtms5), purified (Ni-NTA)
stoichiometry N [6]: 4

The remaining lines, values ahead:

stoichiometry N [2]: 2
Molecule: HcRed

stoichiometry N [5]: 2
Molecule: Rtms5^S125R (natural protein)
